The target of assay [1] is FLAG-tagged wild-type TgAMA1 on Toxoplasma gondii tachyzoites (Toxoplasma gondii) (UniProt B6KAM0).
For assay [2], the target named is hypercleavable mutant form of TgAMA1 (AMA1^L/G) on Toxoplasma gondii tachyzoites (Toxoplasma gondii) (UniProt B6KAM0).

In assay [1], “D3 domain of TgRON2 fused to glutathione S-transferase (GST-D3) (domain or fragment)” registered an amount of FLAG-tagged TgAMA1 ectodomain shed into the supernatant, constitutive microneme secretion assay, against GST-treated controls; dose dependent from 0.01 to 1 µM GST-D3, fold decrease at 5 µM of 5.7 fold. In assay [2], this substance returned a constitutive cleavage and shedding of AMA1^L/G, microneme secretion assay, saturating (1 µM) GST-D3 against GST; percent inhibition of 50%.

These data come from PMC5021801.
